Data on four molecules can be found in PMC12787490, “PSA-Responsive Aptamer-Based Switchable Aggregates of Ultrasmall Gold Nanoparticles”.

Data set [1] deals with T1, prostate-specific antigen (PSA) (human, UniProt P07288 25-261). The data set is described as follows: ELONA (direct); 3.9-500 nM aptamer, 5 mM MgCl2; ELONA: PSA 250 ng/well adsorbed; aptamers 3.9-500 nM in PBS + 5 mM MgCl2, 1 h at 37 C; block 3% BSA + 100 nM ssDNA mix; wash PBS 0.05% Tween-20. The note with it: protein: commercial; label: biotin.
T1 sequence (P07288 25-261): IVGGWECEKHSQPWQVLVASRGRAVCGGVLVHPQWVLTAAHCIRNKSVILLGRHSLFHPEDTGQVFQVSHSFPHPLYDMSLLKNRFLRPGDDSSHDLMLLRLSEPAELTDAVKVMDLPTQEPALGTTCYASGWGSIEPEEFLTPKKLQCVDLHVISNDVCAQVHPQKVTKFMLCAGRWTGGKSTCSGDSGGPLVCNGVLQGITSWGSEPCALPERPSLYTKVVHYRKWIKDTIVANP
For data set [2], the target named is T1, prostate-specific antigen (PSA). The experiment in a line: ELONA (direct); significant signal from 250 nM; affinity comparable to AS2; 5 mM MgCl2; ELONA: PSA 250 ng/well adsorbed; aptamers 3.9-500 nM in PBS + 5 mM MgCl2, 1 h at 37 C; block 3% BSA + 100 nM ssDNA mix; wash PBS 0.05% Tween-20. The note with it: protein: commercial; label: biotin; 15 bp duplex at 3' end of AS2-tail, 5' overhang 32 nt of AS2-tail.

Data set [3] shares this target. The experiment in a line: DLS and plasmon shift (aggregate disassembly); response down to 10 fM PSA in buffer, 1 pM in filtered plasma; ELONA: PSA 250 ng/well adsorbed; aptamers 3.9-500 nM in PBS + 5 mM MgCl2, 1 h at 37 C; block 3% BSA + 100 nM ssDNA mix; wash PBS 0.05% Tween-20. The note with it: protein: commercial; label: US-AuNP; 15 bp duplex at 3' end of AS2-tail, 5' overhang 32 nt; about 8 ssDNA per particle.

Data set [4] shares this target. The data set is described as follows: ELONA (direct); significant signal from 250 nM, 5 mM MgCl2; ELONA: PSA 250 ng/well adsorbed; aptamers 3.9-500 nM in PBS + 5 mM MgCl2, 1 h at 37 C; block 3% BSA + 100 nM ssDNA mix; wash PBS 0.05% Tween-20. Particulars: protein: commercial; label: biotin; stem-loops nt 4-14 and 17-30 (predicted).

Turning to ATTAAAGCTCGCCATCAAATAGC (ssDNA, biotin) [aPSA-biotin], the binding result in data set [1] was “no binding”.

B1: AS2-tail-biotin:RevAS2 (mixed)
DNA: GGGCGGGGCGGACGAGACAGTAAGGGCTGTGGGTGTGGTGTTTTTTT
?: AAAAAAACACCACAC
modifications: 3' biotin on AS2-tail
In the case of B1, the binding result in data set [2] was “binds”.

B2: AS2-tail-thio:RevAS2-thio (AS2-US-AuNP-Aggregate) (mixed)
DNA: B1 DNA
?: AAAAAAACACCACAC
modifications: 3' thiol on AS2-tail, 5' thiol on RevAS2; conjugated to gold nanoparticles
For B2, the binding result in data set [3] is listed as “binds”. Regarding GGGCGGGGCGGACGAGACAGTAAGGGCTGTGGGTGTGGTG (structured_DNA, 3' biotin) [AS2-biotin], in data set [4], the binding result was “binds”.
